How the values were obtained:
[1] = test system: human CD22 (CD22beta) lacking domain 1, domain 2, or domains 3 and 4; test: Epitope mapping by flow cytometry on CHO cells expressing CD22 domain deletion variants; type: binding
Protocol: (§1) The epitopes of CD22 to which 10F4.4.1 and 5E8.1.8 antibodies bound were determined according to the following procedures. CD22 sequences lacking various of the seven immunoglobulin-like domains of the major CD22 isoform (CD22beta) were cloned and transformed into cells for stable expression. For example, CD22 variants lacking domain 1 (Δ1), domain 2 (Δ2), or domains 3 and 4 (Δ3,4) were cloned, transformed into CHO cells, and expressed on the cells. Control cells expressed CD22beta. Deletions were performed using Stratagene QuikChange XL™ reagent kit. Deletion of domain 1 was performed by deletion of amino acids 22-138; deletion of domain 2 was performed by deletion of amino acids 139-242; and deleted domains 3 and 4 were available as the minor isoform CD22alpha (deletion of amino acids 241-417). All amino acid numbers refer to the numbering of full length precursor CD22beta by Wilson, G. L. et al. (see FIG. 1 in Wilson, G. L. et al., J. Exp. Med. 173:137-146 (1991)). FIG. 14 is a diagram of the deleted domains. Binding was determined by flow cytometry using an isotype control. Binding of 10F4.4.1 was detected using goat anti-mouse IgG Alexa 488. Binding of 5E8.1.8 was detected using biotinylated goat anti-mouse IgG plus streptavidin PE. […] Neither bound CD22 lacking domain 1 or domain 2, and both bound CD22 comprising domains 1 and 2, but lacking domains 3 and 4.

[2] = target: T1, human CD22 (CD22beta) lacking domain 1, domain 2, or domains 3 and 4 (Homo sapiens, UniProt P20273); test: as above; type: binding; settings: flow cytometry, CHO cells
T1 construct: expressed in transfected cells
T1 sequence (P20273 22-670 isoform P20273-2): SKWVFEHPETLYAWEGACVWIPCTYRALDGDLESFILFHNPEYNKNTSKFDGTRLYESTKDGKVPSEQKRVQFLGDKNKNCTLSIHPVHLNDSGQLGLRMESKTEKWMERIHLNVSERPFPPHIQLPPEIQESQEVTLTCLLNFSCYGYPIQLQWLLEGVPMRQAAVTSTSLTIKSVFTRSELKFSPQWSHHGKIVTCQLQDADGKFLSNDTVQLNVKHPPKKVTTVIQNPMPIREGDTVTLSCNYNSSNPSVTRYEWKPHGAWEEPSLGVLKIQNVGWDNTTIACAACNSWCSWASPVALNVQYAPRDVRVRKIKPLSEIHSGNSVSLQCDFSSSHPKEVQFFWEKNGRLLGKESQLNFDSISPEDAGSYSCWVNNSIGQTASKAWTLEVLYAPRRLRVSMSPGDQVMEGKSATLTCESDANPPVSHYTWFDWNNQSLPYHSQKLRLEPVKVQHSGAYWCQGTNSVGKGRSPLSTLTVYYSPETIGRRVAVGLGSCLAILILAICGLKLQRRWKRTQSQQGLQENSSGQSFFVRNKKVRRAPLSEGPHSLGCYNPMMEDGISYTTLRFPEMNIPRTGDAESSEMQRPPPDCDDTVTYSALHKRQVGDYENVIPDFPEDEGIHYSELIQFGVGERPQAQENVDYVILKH
Protocol: as §1

[3] = test system: human CD22; test: ELISA plate assays and FACS cell-based assays for selection of hybridoma antibodies; type: binding
Protocol: Murine monoclonal antibodies capable of specifically binding human CD22 was prepared. BALB/c female mice, age six weeks, were immunized in their foot pads with purified human CD22 his-8 tagged extracellular domain lacking domains 3 and 4 (SEQ ID NO:30 (ECD) plus the sequence […] at the C-terminus) or CD22 his-8 tagged extracellular domain comprising domains 1-7 (SEQ ID NO:28 (ECD) plus the above His sequence tag) in Ribi's adjuvant. Subsequent injections were performed in the same manner at one and three weeks after the initial immunizations. […]
ELISA-based assays: Anti-CD22 antibody screening by ELISA is performed as follows, with all incubations done at room temperature. […] Data is obtained by reading the plates in an automated ELISA plate reader at an absorbance of 490 nm.
CHO cells expressing human CD22 on their surface were incubated with anti-CD22 hybridoma supernatant in 100 μl FACS buffer (0.1% BSA, 10 mM sodium azide in PBS, pH 7.4) for 30 minutes at 4° C. followed by one wash with FACS buffer. The amount of anti-CD22 binding was determined by incubating an aliquot of the antibody/cell mixture with a polyclonal FITC conjugated goat or rabbit anti-mouse IgG (Accurate Chem. Co., Westbury, N.Y.) (for murine test antibodies) or goat or rabbit anti-human IgG (for humanized antibodies) for 30 minutes at 4° C. followed by three washes with FACS buffer.

[4] = target: T2, human CD22-beta-ECD-His tagged soluble antigen (Homo sapiens, UniProt P20273, A486R/Y639H); test: BIACORE surface plasmon resonance binding to soluble CD22 ECD; settings: BIACORE 3000, 25° C., antibody coupled to chip, soluble CD22 ECD injected; one-to-one Langmuir model
T2 sequence (P20273 22-681 A486R/Y639H): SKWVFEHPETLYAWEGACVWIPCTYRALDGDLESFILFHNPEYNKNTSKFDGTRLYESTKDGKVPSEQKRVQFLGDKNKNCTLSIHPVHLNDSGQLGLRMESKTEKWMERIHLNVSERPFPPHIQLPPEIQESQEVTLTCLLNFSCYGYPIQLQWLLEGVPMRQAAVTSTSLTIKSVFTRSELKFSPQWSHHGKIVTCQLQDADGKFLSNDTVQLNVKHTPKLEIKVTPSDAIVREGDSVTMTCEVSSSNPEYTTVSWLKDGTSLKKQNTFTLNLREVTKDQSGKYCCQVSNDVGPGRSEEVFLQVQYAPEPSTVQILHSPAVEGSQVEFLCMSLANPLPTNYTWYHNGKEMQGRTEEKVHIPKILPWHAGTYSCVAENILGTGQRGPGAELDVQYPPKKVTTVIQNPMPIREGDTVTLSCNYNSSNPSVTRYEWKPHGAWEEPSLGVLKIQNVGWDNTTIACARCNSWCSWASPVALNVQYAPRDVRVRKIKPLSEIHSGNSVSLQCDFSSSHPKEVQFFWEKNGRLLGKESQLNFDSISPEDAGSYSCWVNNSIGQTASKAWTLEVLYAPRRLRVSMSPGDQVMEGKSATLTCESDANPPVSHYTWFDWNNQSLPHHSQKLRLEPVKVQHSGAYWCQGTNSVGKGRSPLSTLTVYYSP
Protocol: The binding affinity of murine and humanized 10F4 antibody for soluble CD22 extracellular domain (ECD) was determined by surface plasmon resonance measurement using a BIACORE® 3000 system (Biacore, Inc., Piscataway, N.J.). Briefly, carboxymethylated dextran biosensor chips (CMS, Biacore Inc.) were activated with N-ethyl-N′-(3-dimethylaminopropyl)-carbodiimide hydrochloride (EDC) and N-hydroxysuccinimide (NHS) according to the supplier's instructions. These activated chips were coated with anti-CD22 IgG1 antibody 10F4 (murine or humanized) by dilution to 5 μg/ml with 10 mM sodium acetate, pH 4.8, before injection at a flow rate of 5 μl/minute to achieve approximately 500 response units (RU) of coupled antibody. Next, 1M ethanolamine was injected to block unreacted groups. […] Association rates (kon) and dissociation rates (koff) were calculated using a simple one-to-one Langmuir binding model (BIAevaluation Software version 3.2). The equilibrium dissociation constant (Kd) was calculated as the ratio koff/kon. Anti-CD22 antibody, RFB4, was used as a control (Chemicon International, Inc., Temecula, Calif., catalog no. CBL147).

Sequence of human CD22 (P20273 20-240 limits assumed): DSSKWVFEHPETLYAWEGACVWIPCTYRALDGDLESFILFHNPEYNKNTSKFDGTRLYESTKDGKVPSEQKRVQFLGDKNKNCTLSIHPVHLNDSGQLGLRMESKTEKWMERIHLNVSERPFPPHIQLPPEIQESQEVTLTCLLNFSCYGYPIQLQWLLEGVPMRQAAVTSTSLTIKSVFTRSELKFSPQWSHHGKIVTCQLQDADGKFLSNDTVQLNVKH

binding to CD22 comprising domains 1 and 2 but lacking domains 3 and 4 [2]: both bound
koff/10^−4 [4]: 2.8
kon/10^5 [4]: 0.19
B1: Mu 10F4.4.1: murine anti-human CD22 monoclonal antibody, hybridoma ATCC PTA-7621 (antibody, V domains shown)
VH: QVQLQQSGPELVKPGASVKISCKASGYEFSRSWMNWVKQRPGQGREWIGRIYPGDGDTNYSGKFKGKATLTADKSSSTAYMQLSSLTSVDSAVYFCARDGSSWDWYFDVWGAGTTVTVSS
VL: DILMTQTPLSLPVSLGDQASISCRSSQSIVHSNGNTFLEWYLQKPGQSPKLLIYKVSNRFSGVPDRFSGSGSGTDFTLKISRVEAEDLGVYYCFQGSQFPYTFGGGTKVEIK
binding to CD22 lacking domain 1 or domain 2 ([1]; flow cytometry, CHO cells): Neither bound
epitope (CD22 domains bound) ([1]; within amino acid 22 to amino acid 240 of SEQ ID NO:27): domains 1 and 2 of human CD22
specific binding to human CD22 [3]: bind specifically to human CD22
